Among the data in PMC4364632, “Engineering a fungal peroxidase that degrades lignin at very acidic pH” (Biotechnology for Biofuels, 2014) are Km, kcat and kcat/Km values, retold here.

What is called Km is the concentration of substrate that gives half-maximal velocity. For orientation: kcat means the number of substrate molecules converted per active site and unit of time at saturation. Broadly, the kcat/Km is the second-order rate constant that governs catalysis at low substrate concentration.

In data set [1] the test system is T1, VP1.
T1 construct: mature protein, signal peptide removed, untagged in pET23a
Put plainly: ABTS cation radical formation at […] nm, steady-state kinetics. It counts as biochemical, Pleurotus ostreatus. Conditions: 0.1 mM H2O2, 0.1 M tartrate pH 3.5, 25°C; biphasic, high-efficiency site (catalytic Trp).

The subject of data set [2] is T1, VP1. Put plainly: dimeric coerulignone formation at […] nm, steady-state kinetics. It counts as biochemical, Pleurotus ostreatus. Conditions: 0.1 mM H2O2, 0.1 M tartrate pH 3.5, 25°C; biphasic, high-efficiency site (catalytic Trp).
Data set [3] deals with T1, VP1. Put plainly: RB5 disappearance at […] nm, steady-state kinetics. Conditions: 0.1 mM H2O2, 0.1 M tartrate pH 3.5, 25°C. It counts as biochemical, Pleurotus ostreatus.
The subject of data set [4] is T1, VP1. Put plainly: veratraldehyde formation at […] nm, steady-state kinetics. It counts as biochemical, Pleurotus ostreatus. The settings on record: 0.1 mM H2O2, 0.1 M tartrate pH 3.0, 25°C.
Substrate in data set [5]: COc1ccc(CO)cc1OC
Put plainly: purified protein. It counts as biochemical, Gelatoporia subvermispora. Conditions: 0.1 mM H2O2, 0.1 M tartrate pH 3.0, 25°C.

Substrate in data set [6]: COc1ccccc1OC(CO)C(O)c1cc(OC)c(OC)c(OC)c1
Put plainly: purified protein. It counts as biochemical, Gelatoporia subvermispora. Conditions: 0.1 mM H2O2, 100 mM BR buffer pH 3.0, 25°C, unit doubtful: printed kcat/Km (s^-1.mM^-1) implies mM.

Substrate in data set [7]: Nc1c(N=Nc2ccc(S(=O)(=O)CCOS(=O)(=O)O)cc2)c(S(=O)(=O)O)cc2cc(S(=O)(=O)O)c(N=Nc3ccc(S(=O)(=O)CCOS(=O)(=O)O)cc3)c(O)c12
In words: purified protein. It counts as biochemical, Gelatoporia subvermispora. Conditions: 0.1 mM H2O2, 0.1 M tartrate pH 3.5, 25°C.

Substrate in data set [8]: CCn1c(=NN=c2sc3cc(S(=O)(=O)O)ccc3n2CC)sc2cc(S(=O)(=O)O)ccc21
In words: purified protein. It counts as biochemical, Gelatoporia subvermispora. Conditions: 0.1 mM H2O2, 0.1 M tartrate pH 3.5, 25°C.

Substrate in data set [9]: COc1cccc(OC)c1O
Put plainly: purified protein. It counts as biochemical, Phanerodontia chrysosporium. The settings on record: 0.1 mM H2O2, 0.1 M tartrate pH 3.5, 25°C.

Substrate in data set [10]: COc1ccc(CO)cc1OC
Put plainly: purified protein. It counts as biochemical, Phanerodontia chrysosporium. Conditions: 0.1 mM H2O2, 0.1 M tartrate pH 3.0, 25°C.

Substrate in data set [11]: CCn1c(=NN=c2sc3cc(S(=O)(=O)O)ccc3n2CC)sc2cc(S(=O)(=O)O)ccc21
Put plainly: purified protein. It counts as biochemical, Phanerodontia chrysosporium. Conditions: 0.1 mM H2O2, 0.1 M tartrate pH 3.5, 25°C.

For `CCn1c(=NN=c2sc3cc(S(=O)(=O)O)ccc3n2CC)sc2cc(S(=O)(=O)O)ccc21` [2,2'-azino-bis(3-ethylbenzothiazoline-6-sulfonate)], in the data set with VP1 [1], the Km came out at 4 ± 0.4 µM.
For `COc1cccc(OC)c1O` [2,6-dimethoxyphenol], the Michaelis constant (Km) in the data set with VP1 [2] is 54 ± 4 µM.
Consider `Nc1c(N=Nc2ccc(S(=O)(=O)CCOS(=O)(=O)O)cc2)c(S(=O)(=O)O)cc2cc(S(=O)(=O)O)c(N=Nc3ccc(S(=O)(=O)CCOS(=O)(=O)O)cc3)c(O)c12` [Reactive Black 5], for which the Km in the data set with VP1 [3] was 5.4 ± 0.2 µM.
As to `COc1ccc(CO)cc1OC` [veratryl alcohol], the Michaelis-Menten constant (Km) in the data set on VP1 [4] was found to be 5500 ± 46 µM.

B1: MnP6 (Gelatoporia subvermispora B; S171W/S189W) (protein)
chain: APTAVCSDGTRVSNAVCCDFVSLGQDLQSMVLQGDCGEDAHEIIRLTFHDAVAISRKLGPSAGGGADGSMLLFPLVEPEFAASNGIDDSVNNLIPFLSLHPTISAGDLVQFAGAVALSNCPGAPRVQFLAGRPNHTIAAIDGLIPEPQDNVTWILERFDDAGGFTPFEVVWLLASHTIARADKVDPTLDAAPFDTTPFTFDSQIFLEVLLKGVGFPGLDNNTGEVSSPLPLGDTSTGGKDTGLMRLQSDFALAHDPRTACFWQGFVDQQEFMSQSFASAFAKLAVLGHNTDDLIDCSEVVPVPKPAVDKPTTFPATTGPQDLELSCLAERFPTLSVDPGAQETLIPHCSDGLENCTSVQFSGPATDSP
notes: mature protein, signal peptide removed, untagged in pET23a; S168W and S168W-environment variants
On to B1, for which the Km was determined as 2740 ± 560 µM in the data set “purified protein [5]”, 0.0049 ± 0.0013 mM in “purified protein [6]”, 12.6 ± 3 µM in “purified protein [7]” and 60.2 ± 13.4 µM in the data set “purified protein [8]”. For the same molecule, the kcat in “purified protein [5]” was determined as 0.54 ± 0.04 s⁻¹; in “purified protein [7]”, 7.8 ± 1.1 s⁻¹; in “purified protein [8]”, 1.4 ± 0.1 s⁻¹. Further, the kcat/Km in “purified protein [5]” was found to be 197 M⁻¹ s⁻¹; in “purified protein [7]”, 619000 ± 27000 M⁻¹ s⁻¹; in “purified protein [8]” it was 23000 ± 3000 M⁻¹ s⁻¹.

B2: MnP6 (Gelatoporia subvermispora B; F279E/F283M/F289K/Q292N/S171W/S189W/S293R/S296G/T183S) (protein)
chain: APTAVCSDGTRVSNAVCCDFVSLGQDLQSMVLQGDCGEDAHEIIRLTFHDAVAISRKLGPSAGGGADGSMLLFPLVEPEFAASNGIDDSVNNLIPFLSLHPTISAGDLVQFAGAVALSNCPGAPRVQFLAGRPNHTIAAIDGLIPEPQDNVTWILERFDDAGGFSPFEVVWLLASHTIARADKVDPTLDAAPFDTTPFTFDSQIFLEVLLKGVGFPGLDNNTGEVSSPLPLGDTSTGGKDTGLMRLQSDFALAHDPRTACEWQGMVDQQEKMSNRFAGAFAKLAVLGHNTDDLIDCSEVVPVPKPAVDKPTTFPATTGPQDLELSCLAERFPTLSVDPGAQETLIPHCSDGLENCTSVQFSGPATDSP
notes: as for B1
B2: in “purified protein [5]”, the Km is 21600 ± 200 µM, the kcat was 1.69 ± 0.04 s⁻¹ and the kcat/Km was found to be 78 M⁻¹ s⁻¹. Also, in the data set “purified protein [7]”, the Km stood at 5.4 ± 3 µM, the kcat was 7 ± 1.1 s⁻¹ and the kcat/Km was found to be 1.31e+06 ± 100000 M⁻¹ s⁻¹.

B3: LiP-H8 (Phanerodontia chrysosporium) (protein)
chain: ATCSNGKTVGDASCCAWFDVLDDIQQNLFHGGQCGAEAHESIRLVFHDSIAISPAMEAQGKFGGGGADGSIMIFDDIETAFHPNIGLDEIVKLQKPFVQKHGVTPGDFIAFAGRVALSNCPGAPQMNFFTGRAPATQPAPDGLVPEPFHTVDQIINRVNDAGEFDELELVWMLSAHSVAAVNDVDPTVQGLPFDSTPGIFDSQFFVETQLRGTAFPGSGGNQGEVESPLPGEIRIQSDHTIARDSRTACEWQSFVNNQSKLVDDFQFIFLALTQLGQDPNAMTDCSDVIPQSKPIPGNLPFSFFPAGKTIKDVEQACAETPFPTLTTLPGPETSVQRIPPPPGA
Consider B3, for which, in the data set “purified protein [9]”, the Km was 5.8 ± 0.5 µM, the kcat came out at 10 ± 0.1 s⁻¹ and the kcat/Km came to 1.72e+06 ± 153000 M⁻¹ s⁻¹. For the same molecule, in the data set “purified protein [10]”, the Km stood at 190 ± 17 µM, the kcat was 17.5 ± 0.5 s⁻¹ and the kcat/Km came to 92000 ± 6000 M⁻¹ s⁻¹. Moreover, in “purified protein [11]”, the Km was 23.0 ± 1.6 µM, the kcat is 13 ± 0.2 s⁻¹ and the kcat/Km turned out to be 563000 ± 36000 M⁻¹ s⁻¹.
